Measurements from PMC12756731, “Substitution of Zn^2+ with Ni^2+ Alters Kinetic Steps in D‑2-Hydroxyglutarate Dehydrogenase from Pseudomonas aeruginosa PAO1” (ACS Omega, 2025).

Key:
[1] = biological target: T1, D-2-hydroxyglutarate dehydrogenase (P. aeruginosa D2HGDH; EFAD-Zn^2+, EFAD-Ni^2+) (Pseudomonas aeruginosa, UniProt Q9I6H4); assay: UV-vis absorbance of purified enzyme with bound flavin; type: binding; conditions: co-purified oxidized FAD in EFAD-Ni2+ enzyme; maxima at 380 and 450 nm
T1 construct: gene PA0317; 6 His-tag at the tail of the gene (C-terminal), pET20b(+), E. coli Rosetta(DE3)pLysS; loaded with Zn2+ or Ni2+
T1 sequence (Q9I6H4 1-464): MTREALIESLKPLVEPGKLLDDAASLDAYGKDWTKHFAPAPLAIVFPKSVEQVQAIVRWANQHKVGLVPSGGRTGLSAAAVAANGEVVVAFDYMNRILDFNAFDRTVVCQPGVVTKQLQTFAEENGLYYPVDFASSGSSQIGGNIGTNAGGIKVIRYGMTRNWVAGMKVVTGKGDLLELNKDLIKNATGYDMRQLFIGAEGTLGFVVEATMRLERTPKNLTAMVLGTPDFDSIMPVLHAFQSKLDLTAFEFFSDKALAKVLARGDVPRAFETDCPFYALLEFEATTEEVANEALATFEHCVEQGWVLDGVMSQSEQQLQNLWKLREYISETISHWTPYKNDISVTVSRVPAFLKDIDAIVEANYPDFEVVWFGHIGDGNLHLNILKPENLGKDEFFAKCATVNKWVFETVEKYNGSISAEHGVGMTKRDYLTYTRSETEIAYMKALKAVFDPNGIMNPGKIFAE

[2] = substrate: O=C(O)CC[C@@H](O)C(=O)O; assay: PMS-driven oxygen consumption, Clark-type oxygen electrode, initial rates; type: biochemical, Pseudomonas aeruginosa; conditions: 1 mM PMS (saturating), 25 mM NaPO4, pH 7.4, 25 °C
Excerpt: PMS-driven oxygen consumption, Clark-type oxygen electrode, initial rates on D-2-hydroxyglutarate dehydrogenase (P. aeruginosa D2HGDH; EFAD-Zn^2+, EFAD-Ni^2+)

[3] = Ni2+-substituted enzyme (EFAD-Ni2+), non-native metal
[4] = native Zn2+-loaded enzyme (EFAD-Zn2+)

In the case of `Cc1cc2nc3c(=O)[nH]c(=O)nc-3n(C[C@H](O)[C@H](O)[C@H](O)COP(=O)(O)OP(=O)(O)OC[C@H]3O[C@@H](n4cnc5c(N)ncnc54)[C@H](O)[C@@H]3O)c2cc1C` [FAD], the “UV-vis absorbance of purified enzyme with bound flavin” value [1] is reported as “enzyme was in a fully oxidized state with the bound FAD cofactor”.

B1: D-2-hydroxyglutarate dehydrogenase (P. aeruginosa D2HGDH; EFAD-Zn^2+, EFAD-Ni^2+) (Pseudomonas aeruginosa PAO1) (protein)
chain: T1 sequence (Q9I6H4 1-464)
notes: 6 His-tag at the tail of the gene (C-terminal), pET20b(+), E. coli Rosetta(DE3)pLysS; loaded with Zn2+ or Ni2+
Molecule B1 has a Km [2, 3] of 140 ± 10 µM, a kcat [2, 3] of 18 ± 1 s⁻¹ and a kcat/Km [2, 3] of 130000 ± 9000 M⁻¹ s⁻¹. The Km [2, 4] was 150 ± 10 µM, the kcat [2, 4] was 30 ± 1 s⁻¹ and the kcat/Km [2, 4] was 205000 ± 10000 M⁻¹ s⁻¹.
